Biological target: Spike S1 & S2 ECD (SARS-CoV-2) (UniProt P0DTC2)
Assay: filter
[1] = Y=Tyr-dU, p=Nap-dC, SB18T0.01, 37 C

ANNANGNGNNNGANNGNNNGGANG [26874-29_25]
Kd [1]: 1.8 nM

ANNANGNGNNNGANNGNNNGGANGG [26874-29_23]
Kd [1]: 1.6 nM

GGANANNANGNGNNNGANNGNNNGGANG [26874-29_21]
Kd [1]: 2.2 nM

GGGACANNANGNGNNNGANNGNNNGGANG [26874-29_127]
Kd (c3 (not defined) at 5, other dU Tyr-dU, dC Nap-dC, SB18T0.01, 37 C): 0.28 nM

GGGAHANNANGNGNNNGANNGNNNGGANG [26874-29_96]
Kd (ThdU at 5, other dU Tyr-dU, dC Nap-dC, SB18T0.01, 37 C): 0.27 nM

GGGANANHANGNGNNNGANNGNNNGGANG [26874-29_98]
Kd (ThdU at 8, other dU Tyr-dU, dC Nap-dC, SB18T0.01, 37 C): 0.22 nM

GGGANANNANGNGHNNGANNGNNNGGANG [26874-29_100]
Kd (ThdU at 14 as printed (same as _102; position 10 probably meant), other dU Tyr-dU, dC Nap-dC, SB18T0.01, 37 C): 0.49 nM

GGGANANNANGNGHNNGANNGNNNGGANG [26874-29_102]
Kd (ThdU at 14, other dU Tyr-dU, dC Nap-dC, SB18T0.01, 37 C): 0.45 nM

GGGANANNANGNGNNNGANNGNHNGGANG [26874-29_104]
Kd (ThdU at 23, other dU Tyr-dU, dC Nap-dC, SB18T0.01, 37 C): 0.59 nM

GGGANANNANGNGNNNGANNGNNNGGANG [26874-29_47]
Kd (NapdU at 5, other dU Tyr-dU, dC Nap-dC, SB18T0.01, 37 C): 0.31 nM

GGGANANNANGNGNNNGANNGNNNGGANG [26874-29_48]
Kd (FBndU at 8, other dU Tyr-dU, dC Nap-dC, SB18T0.01, 37 C): 0.26 nM

GGGANANNANGNGNNNGANNGNNNGGANG [26874-29_49]
Kd (NapdU at 8, other dU Tyr-dU, dC Nap-dC, SB18T0.01, 37 C): 0.4 nM

GGGANANNANGNGNNNGANNGNNNGGANG [26874-29_50]
Kd (FBndU at 10, other dU Tyr-dU, dC Nap-dC, SB18T0.01, 37 C): 0.31 nM

GGGANANNANGNGNNNGANNGNNNGGANG [26874-29_51]
Kd (NapdU at 10, other dU Tyr-dU, dC Nap-dC, SB18T0.01, 37 C): 0.36 nM

GGGANANNANGNGNNNGANNGNNNGGANG [26874-29_52]
Kd (Y=Tyr-dU, p=Nap-dC, position 14 FBn-dU, Kd/Kd_20 0.27): 0.11 nM

GGGANANNANGNGNNNGANNGNNNGGANG [26874-29_53]
Kd (NapdU at 14, other dU Tyr-dU, dC Nap-dC, SB18T0.01, 37 C): 0.2 nM

GGGANANNANGNGNNNGANNGNNNGGANG [26874-29_54]
Kd (FBndU at 23, other dU Tyr-dU, dC Nap-dC, SB18T0.01, 37 C): 0.21 nM

GGGANANNANGNGNNNGANNGNNNGGANG [26874-29_55]
Kd (NapdU at 23, other dU Tyr-dU, dC Nap-dC, SB18T0.01, 37 C): 0.25 nM

GGGANANNANGNGNNNGANNGNNNGGANG [26874-29_56]
Kd (TrpdU at 5, other dU Tyr-dU, dC Nap-dC, SB18T0.01, 37 C): 0.54 nM

GGGANANNANGNGNNNGANNGNNNGGANG [26874-29_57]
Kd (BndU at 5, other dU Tyr-dU, dC Nap-dC, SB18T0.01, 37 C): 0.21 nM

GGGANANNANGNGNNNGANNGNNNGGANG [26874-29_58]
Kd (TrpdU at 8, other dU Tyr-dU, dC Nap-dC, SB18T0.01, 37 C): 0.27 nM

GGGANANNANGNGNNNGANNGNNNGGANG [26874-29_59]
Kd (BndU at 8, other dU Tyr-dU, dC Nap-dC, SB18T0.01, 37 C): 0.18 nM

GGGANANNANGNGNNNGANNGNNNGGANG [26874-29_60]
Kd (Y=Tyr-dU, p=Nap-dC, position 10 Trp-dU, Kd/Kd_20 0.24): 0.098 nM

GGGANANNANGNGNNNGANNGNNNGGANG [26874-29_61]
Kd (BndU at 10, other dU Tyr-dU, dC Nap-dC, SB18T0.01, 37 C): 0.31 nM

GGGANANNANGNGNNNGANNGNNNGGANG [26874-29_62]
Kd (Y=Tyr-dU, p=Nap-dC, position 14 Trp-dU, Kd/Kd_20 0.30): 0.13 nM

GGGANANNANGNGNNNGANNGNNNGGANG [26874-29_63]
Kd (BndU at 14, other dU Tyr-dU, dC Nap-dC, SB18T0.01, 37 C): 0.16 nM

GGGANANNANGNGNNNGANNGNNNGGANG [26874-29_64]
Kd (TrpdU at 23, other dU Tyr-dU, dC Nap-dC, SB18T0.01, 37 C): 0.27 nM

GGGANANNANGNGNNNGANNGNNNGGANG [26874-29_65]
Kd (BndU at 23, other dU Tyr-dU, dC Nap-dC, SB18T0.01, 37 C): 0.28 nM

GGGANANNANGNGNNNGANNGNNNGGANG [26874-29_66]
Kd (PBndU at 5, other dU Tyr-dU, dC Nap-dC, SB18T0.01, 37 C): 0.19 nM

GGGANANNANGNGNNNGANNGNNNGGANG [26874-29_68]
Kd (PBndU at 8, other dU Tyr-dU, dC Nap-dC, SB18T0.01, 37 C): 0.21 nM

GGGANANNANGNGNNNGANNGNNNGGANG [26874-29_70]
Kd (PBndU at 10 (printed sequence lacks Y at 10, F^ in place), other dU Tyr-dU, dC Nap-dC, SB18T0.01, 37 C): 0.2 nM

GGGANANNANGNGNNNGANNGNNNGGANG [26874-29_72]
Kd (Y=Tyr-dU, p=Nap-dC, position 14 PBn-dU, Kd/Kd_20 0.33): 0.14 nM

GGGANANNANGNGNNNGANNGNNNGGANG [26874-29_74]
Kd (PBndU at 23, other dU Tyr-dU, dC Nap-dC, low plateau, very faint spots): 0.46 nM

GGGANANNANGNGNNNGANNGNNNGGANG [26874-29_76]
Kd (NEdU at 5, other dU Tyr-dU, dC Nap-dC, SB18T0.01, 37 C): 0.46 nM

GGGANANNANGNGNNNGANNGNNNGGANG [26874-29_77]
Kd (Y=Tyr-dU, p=Nap-dC, position 5 PE-dU, Kd/Kd_20 0.32): 0.13 nM

GGGANANNANGNGNNNGANNGNNNGGANG [26874-29_78]
Kd (NEdU at 8, other dU Tyr-dU, dC Nap-dC, SB18T0.01, 37 C): 0.24 nM

GGGANANNANGNGNNNGANNGNNNGGANG [26874-29_79]
Kd (PEdU at 8, other dU Tyr-dU, dC Nap-dC, SB18T0.01, 37 C): 0.17 nM

GGGANANNANGNGNNNGANNGNNNGGANG [26874-29_80]
Kd (NEdU at 10, other dU Tyr-dU, dC Nap-dC, SB18T0.01, 37 C): 0.16 nM

GGGANANNANGNGNNNGANNGNNNGGANG [26874-29_81]
Kd (PEdU at 10, other dU Tyr-dU, dC Nap-dC, SB18T0.01, 37 C): 0.16 nM

GGGANANNANGNGNNNGANNGNNNGGANG [26874-29_82]
Kd (NEdU at 14, other dU Tyr-dU, dC Nap-dC, SB18T0.01, 37 C): 0.18 nM

GGGANANNANGNGNNNGANNGNNNGGANG [26874-29_83]
Kd (PEdU at 14, other dU Tyr-dU, dC Nap-dC, SB18T0.01, 37 C): 0.19 nM

GGGANANNANGNGNNNGANNGNNNGGANG [26874-29_84]
Kd (NEdU at 23, other dU Tyr-dU, dC Nap-dC, SB18T0.01, 37 C): 0.44 nM

GGGANANNANGNGNNNGANNGNNNGGANG [26874-29_85]
Kd (PEdU at 23, other dU Tyr-dU, dC Nap-dC, low plateau): 0.29 nM

GGGANANNANGNGNNNGANNGNNNGGANG [26874-29_86]
Kd (BFdU at 5, other dU Tyr-dU, dC Nap-dC, SB18T0.01, 37 C): 0.21 nM

GGGANANNANGNGNNNGANNGNNNGGANG [26874-29_87]
Kd (PPdU at 5, other dU Tyr-dU, dC Nap-dC, SB18T0.01, 37 C): 0.25 nM

GGGANANNANGNGNNNGANNGNNNGGANG [26874-29_88]
Kd (BFdU at 8, other dU Tyr-dU, dC Nap-dC, SB18T0.01, 37 C): 0.19 nM

GGGANANNANGNGNNNGANNGNNNGGANG [26874-29_89]
Kd (PPdU at 8, other dU Tyr-dU, dC Nap-dC, SB18T0.01, 37 C): 0.2 nM

GGGANANNANGNGNNNGANNGNNNGGANG [26874-29_90]
Kd (Y=Tyr-dU, p=Nap-dC, position 10 BF-dU, Kd/Kd_20 0.33): 0.14 nM

GGGANANNANGNGNNNGANNGNNNGGANG [26874-29_91]
Kd (BFdU at 14 (Table 6B says PPdU), other dU Tyr-dU, dC Nap-dC, SB18T0.01, 37 C): 0.17 nM

GGGANANNANGNGNNNGANNGNNNGGANG [26874-29_92]
Kd (PPdU at 10 (Table 6B says BFdU), other dU Tyr-dU, dC Nap-dC, SB18T0.01, 37 C): 0.18 nM

GGGANANNANGNGNNNGANNGNNNGGANG [26874-29_93]
Kd (PPdU at 14, other dU Tyr-dU, dC Nap-dC, SB18T0.01, 37 C): 0.24 nM

GGGANANNANGNGNNNGANNGNNNGGANG [26874-29_94]
Kd (BFdU at 23, other dU Tyr-dU, dC Nap-dC, SB18T0.01, 37 C): 0.48 nM

GGGANANNANGNGNNNGANNGNNNGGANG [26874-29_95]
Kd (PPdU at 23, other dU Tyr-dU, dC Nap-dC, SB18T0.01, 37 C): 0.42 nM

GGGANANNANGNGNNNGANNGNNNGGANG [26874-29_97]
Kd (ThrdU at 5, other dU Tyr-dU, dC Nap-dC, SB18T0.01, 37 C): 0.29 nM

GGGANANNANGNGNNNGANNGNNNGGANG [26874-29_99]
Kd (ThrdU at 8, other dU Tyr-dU, dC Nap-dC, SB18T0.01, 37 C): 0.24 nM

GGGANANNANGNGNNNGANNGNNNGGANG [26874-29_101]
Kd (ThrdU at 10, other dU Tyr-dU, dC Nap-dC, SB18T0.01, 37 C): 0.36 nM

GGGANANNANGNGNNNGANNGNNNGGANG [26874-29_103]
Kd (ThrdU at 14, other dU Tyr-dU, dC Nap-dC, SB18T0.01, 37 C): 0.49 nM

GGGANANNANGNGNNNGANNGNNNGGANG [26874-29_105]
Kd (ThrdU at 23, other dU Tyr-dU, dC Nap-dC, SB18T0.01, 37 C): 0.79 nM

GGGANANNANGNGNNNGANNGNNNGGANG [26874-29_106]
Kd (MOEdU at 5, other dU Tyr-dU, dC Nap-dC, SB18T0.01, 37 C): 0.66 nM

GGGANANNANGNGNNNGANNGNNNGGANG [26874-29_107]
Kd (2NapdU at 5, other dU Tyr-dU, dC Nap-dC, SB18T0.01, 37 C): 0.49 nM

GGGANANNANGNGNNNGANNGNNNGGANG [26874-29_108]
Kd (MOEdU at 8, other dU Tyr-dU, dC Nap-dC, SB18T0.01, 37 C): 0.72 nM

GGGANANNANGNGNNNGANNGNNNGGANG [26874-29_109]
Kd (2NapdU at 8, other dU Tyr-dU, dC Nap-dC, SB18T0.01, 37 C): 0.48 nM

GGGANANNANGNGNNNGANNGNNNGGANG [26874-29_110]
Kd (MOEdU at 10, other dU Tyr-dU, dC Nap-dC, SB18T0.01, 37 C): 0.43 nM
